To fix the notation:
B1: s-SHIP (stem-SHIP; SH2-lacking isoform of SH2-containing inositol 5'-phosphatase, approximately 104 kd) (enzyme, mouse, UniProt Q9ES52-5 1-928, looked up)
chain: MVAKLSQLTSLLSSIEDKVKSLLHEGSESTNRRSLIPPVTFEVKSESLGIPQKMHLKVDVESGKLIVKKSKDGSEDKFYSHKKILQLIKSQKFLNKLVILVETEKEKILRKEYVFADSKKREGFCQLLQQMKNKHSEQPEPDMITIFIGTWNMGNAPPPKKITSWFLSKGQGKTRDDSADYIPHDIYVIGTQEDPLGEKEWLELLRHSLQEVTSMTFKTVAIHTLWNIRIVVLAKPEHENRISHICTDNVKTGIANTLGNKGAVGVSFMFNGTSLGFVNSHLTSGSEKKLRRNQNYMNILRFLALGDKKLSPFNITHRFTHLFWLGDLNYRVELPTWEAEAIIQKIKQQQYSDLLAHDQLLLERKDQKVFLHFEEEEITFAPTYRFERLTRDKYAYTKQKATGMKYNLPSWCDRVLWKSYPLVHVVCQSYGSTSDIMTSDHSPVFATFEAGVTSQFVSKNGPGTVDSQGQIEFLACYATLKTKSQTKFYLEFHSSCLESFVKSQEGENEEGSEGELVVRFGETLPKLKPIISDPEYLLDQHILISIKSSDSDESYGEGCIALRLETTEAQHPIYTPLTHHGEMTGHFRGEIKLQTSQGKMREKLYDFVKTERDESSGMKCLKNLTSHDPMRQWEPSGRVPACGVSSLNEMINPNYIGMGPFGQPLHGKSTLSPDQQLTAWSYDQLPKDSSLGPGRGEGPPTPPSQPPLSPKKFSSSTANRGPCPRVQEARPGDLGKVEALLQEDLLLTKPEMFENPLYGSVSSFPKLVPRKEQESPKMLRKEPPPCPDPGISSPSIVLPKAQEVESVKGTSKQAPVPVLGPTPRIRSFTCSSSAEGRMTSGDKSQGKPKASASSQAPVPVKRPVKPSRSEMSQQTTPIPAPRPPLPVKSPAVLQLQHSKGRDYRDNTELPHHGKHRQEEGLLGRTAMQ
notes: also called 8-SHIP protein isoform; 104-kd and 97-kd proteins

In one experiment the target is T1, mSosI ( (endogenous in murine ES …, UniProt Q62245 1-1319)).
T1 construct: Its expression in ES cells was confirmed by immunoblot of whole cell lysate; also called mSos1
T1 sequence (looked up): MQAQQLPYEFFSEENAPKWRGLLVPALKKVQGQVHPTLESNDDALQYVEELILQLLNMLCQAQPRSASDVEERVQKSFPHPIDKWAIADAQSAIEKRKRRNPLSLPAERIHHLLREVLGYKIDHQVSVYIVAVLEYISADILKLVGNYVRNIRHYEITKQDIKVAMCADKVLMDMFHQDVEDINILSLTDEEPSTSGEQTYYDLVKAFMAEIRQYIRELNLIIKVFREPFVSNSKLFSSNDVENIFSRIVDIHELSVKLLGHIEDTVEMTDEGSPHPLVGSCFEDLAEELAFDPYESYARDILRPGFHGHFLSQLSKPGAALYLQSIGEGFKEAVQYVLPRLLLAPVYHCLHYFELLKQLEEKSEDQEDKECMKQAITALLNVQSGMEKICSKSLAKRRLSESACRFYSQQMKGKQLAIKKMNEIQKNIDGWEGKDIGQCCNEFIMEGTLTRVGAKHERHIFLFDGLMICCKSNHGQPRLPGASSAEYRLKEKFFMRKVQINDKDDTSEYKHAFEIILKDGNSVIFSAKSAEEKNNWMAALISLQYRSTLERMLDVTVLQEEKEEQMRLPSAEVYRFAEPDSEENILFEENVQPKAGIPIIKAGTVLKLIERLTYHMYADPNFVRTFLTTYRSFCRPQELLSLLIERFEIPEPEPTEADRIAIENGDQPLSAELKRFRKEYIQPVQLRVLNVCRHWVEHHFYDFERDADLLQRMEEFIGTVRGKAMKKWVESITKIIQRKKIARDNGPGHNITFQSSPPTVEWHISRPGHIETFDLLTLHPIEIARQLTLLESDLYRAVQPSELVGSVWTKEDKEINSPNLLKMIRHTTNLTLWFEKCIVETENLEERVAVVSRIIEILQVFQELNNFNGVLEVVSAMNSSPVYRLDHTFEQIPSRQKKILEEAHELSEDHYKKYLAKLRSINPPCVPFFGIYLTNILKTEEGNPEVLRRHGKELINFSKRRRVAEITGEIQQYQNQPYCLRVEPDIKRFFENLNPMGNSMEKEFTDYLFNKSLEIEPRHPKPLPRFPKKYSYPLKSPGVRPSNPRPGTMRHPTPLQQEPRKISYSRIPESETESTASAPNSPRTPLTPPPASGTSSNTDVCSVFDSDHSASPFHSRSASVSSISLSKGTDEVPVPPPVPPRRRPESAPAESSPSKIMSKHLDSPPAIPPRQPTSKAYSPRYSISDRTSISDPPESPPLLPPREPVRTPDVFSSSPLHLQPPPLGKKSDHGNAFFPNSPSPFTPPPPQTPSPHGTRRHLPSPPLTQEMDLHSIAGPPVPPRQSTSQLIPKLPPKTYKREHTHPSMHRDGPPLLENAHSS
In words: co-immunoprecipitation from ES-TL1 cell lysate with P2C6 anti-SHIP antibody, immunoblot for mSosI. From the text:
(§1) FIG. 6 illustrates how ES cells express the 8-SHIP protein isoform that associates with the Grb2 adapter protein. (A) Immunoprecipitation and immunoblot detection of s-SHIP in ES cell lysates. […] No tyrosine phosphorylation of these proteins was detected when they were probed with the 4G10 anti-phosphotyrosine antibody. For comparison, lysates from 293T cells transfected with SHIP cDNA (lane 1) and s-SHIP cDNA (lane 2) were included in the blots. To further assess the tyrosine phosphorylation status of s-SHIP, timed LIF stimulation studies were performed. ES-TL1 cells incubated for 5 hours without LIF were stimulated with 2000 U/mL LIF for 0, 2, 5, or 10 minutes and were rapidly lysed. Equal amounts of total protein were immunoprecipitated with the P2C6 antibody and probed separately with the P2C6 and 4G10 antibodies (lanes 6-9). No tyrosine phosphorylation of s-SHIP was detected at any time point with the 4G10 antibody. For comparison, A20 8-lymphoid cells were stimulated with antiIgG antibody for 0 or 5 minutes, lysed, immunoprecipitated with P2C6, and probed with P2C6 and 4G10 (lanes 3, 4), showing prominent tyrosine phosphorylation of SHIP at 5 minutes. Molecular mass standards are indicated on the right. (B) s-SHIP associates with Grb2 but not Shc in ES cells. ES-TL1 cell lysates were prepared and immunoprecipitated with the […] anti-SHIP monoclonal antibody. […]
A general note: Immunoblotting shows a protein as a band on a membrane.

In experiment [1] the target is B1. In words: co-immunoprecipitation from ES-TL1 cell lysate with P2C6 anti-SHIP antibody, immunoblot for Shc.
Excerpt: as §1

In the case of B1, in the experiment with mSosI, the binding result is on record as “no binding”.

B2: Shc adapter protein (other, UniProt P98083 1-579, looked up)
chain: MDLLPPKPKYNPLRNESLSSLEEGASGSTPPEELPSPSASSLGPILPPLPGDDSPTTLCSFFPRMSNLKLANPAGGRLGPKGEPGKAAEDGEGSAGAALRDSGLLPLLQDMNKLSGGGGRRTRVEGGQLGGEEWTRHGSFVNKPTRGWLHPNDKVMGPGVSYLVRYMGCVEVLQSMRALDFNTRTQVTREAISLVCEAVPGAKGATRRRKPCSRPLSSILGRSNLKFAGMPITLTVSTSSLNLMAADCKQIIANHHMQSISFASGGDPDTAEYVAYVAKDPVNQRACHILECPEGLAQDVISTIGQAFELRFKQYLRNPPKLVTPHDRMAGFDGSAWDEEEEEPPDHQYYNDFPGKEPPLGGVVDMRLREGAARPTLPSAQMSSHLGATLPIGQHAAGDHEVRKQMLPPPPCPGRELFDDPSYVNIQNLDKARQAGGGAGPPNPSLNGSAPRDLFDMKPFEDALRVPPPPQSMSMAEQLQGEPWFHGKLSRREAEALLQLNGDFLVRESTTTPGQYVLTGLQSGQPKHLLLVDPEGVVRTKDHRFESVSHLISYHMDNHLPIISAGSELCLQQPVDRKV
notes: Its expression in ES cells was confirmed by immunoblot of whole cell lysate
B2: in experiment [1], the binding result is “no binding”.

Source of the values: patent publication US20070224124A1 (UNIVERSITY OF SOUTH FLORIDA, published 2007).
